In the supplement of paper PMC9170038:

Test system: MS2 coat protein
Test: apparent KD of MS2 coat protein; higher = weaker reporter binding
Details: Eterna round: R107
Experimental: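 RNA-MaP round R107: designed RNA switches with theophylline, tryptophan, arginine or FMN aptamers are transcribed on-chip within common flanks. They are titrated with SNAP-549-labelled MS2 coat protein in RNA-MaP buffer (100 mM Tris pH 7.5, 80 mM KCl, 4 mM MgCl2), without ligand or with the indicated ligand. Median apparent KD per design.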

[1] = input ligand: theophylline 20 uM
[2] = input ligand: theophylline 2 mM
[3] = input ligand: tryptophan 2.4 mM

Row | Sequence | apparent KD of MS2 coat protein (input ligand: arginine 13.2 mM) | apparent KD of MS2 coat protein [1] | apparent KD of MS2 coat protein [2] | apparent KD of MS2 coat protein (input ligand: none) | apparent KD of MS2 coat protein [3]
1 | ACCUGCGUUUGUUUCUUUCUGACGCAGGUUCGAGGACCGGUACGGCCGCCACUCGGACAUGAGGAUCACCCAUGUUUGAAAUGGG [#01 Exclusion Tryptophan A] | 90.4 nM | 248 nM | 313 nM |  | 
2 | ACGACAUGAGGAUCACCCAUGUACUCUGAAGGAGCGUCGAUUACGACAGGUAGGUCGCAGGCUAAGGAUGGUGAUGCUCAAGACG [Exclusion Arginine A GF8] | 53.5 nM | 90.4 nM | 114 nM | 87.7 nM | 57.8 nM
3 | ACGACGCAUAGUGAUACCAGUAGAACAUGAGGAUCACCCAUGUCUGUGACGCACCACCUCUGCCCUUGGCAGCACUAUGCGUCAG [SSTheo B #8] | 22.3 nM | 30.3 nM |  |  | 23 nM
4 | ACGAUAGCACCUGAGGAUCACCCAGGUGAUACCAGCCUGGAAACAGGCCCUUGGCAGCACCUAAAAUAAAGGUAACUAUCGAAUA [TheoAX6 #MicroSwitchBubble #AlternativeMS2] | 57.3 nM | 251 nM | 105 nM | 50.6 nM | 48.6 nM
5 | ACGAUAGGACUUGAGGAUCACCCAGGUGAUACCAGCCUGGAAACAGGCCCUUGGCAGCACUAAUACUCCAAUAACCUAUCGAAUA [TheoAX 16 #MicroSwitchBubble #AlternativeMS2] | 341 nM | 347 nM | 417 nM | 195 nM | 332 nM
6 | ACGCUGAUUGAUUACAAUCAGCGAAAAGAUACCAGUGGGUAAUCCCACCCUUGGCAGCUUAAACUUGAGGAUCACCCAGGUGGUA [TheoAS 17 #MS2Right #BothOrNeither #AlternativeMS2] | 88.2 nM | 419 nM | 439 nM | 238 nM | 630 nM
7 | ACGCUGCAUAGGAAAACUAUGUAGCGAAAUCGAGGACCGGUACGGCCGCCACUCGUCCUCAACAUGAGGAUCACCCAUGUAAUAA [Mat - Exclusion - Trytophan A - D8] | 20.8 nM | 23.7 nM | 22.8 nM |  | 
8 | ACGUCCGGUUUACUCGUGGGCAUGGUCGAUACCAGUAUUUUAAUCUACCCUUGGCAGCGACAUGAGGAUCACCCAUGUGCGAAGA [XTheo A #21] | 21.5 nM | 30.6 nM |  |  | 22.8 nM
9 | ACUAGUUGUGCAGAUACCAGACAUGAGGAUCACCCAUGUUUGGGAUCUAAUGAUCAUCCUGUCCCUUGGCAGCUGUACAUCUAGA [Omei Theo B Exc v2] | 51.9 nM | 234 nM |  |  | 89.9 nM
10 | ACUAGUUGUGCAGAUACCAGACAUGAGGAUCACCCAUGUUUGGGAUCUAAUGAUCAUCUUGUCCCUUGGCAGCUGUACAUCUAGA [Omei Theo B Exc v1] | 27.1 nM | 72.6 nM |  |  | 55.5 nM
11 | AGAAUAUAAUAUAUCAAAGGUAUAACCGAAGGAGCGCCGAAUAAGGCAGGUAGGUCGCGGAAACAUGAGGAUCACCCAUGUCCAU [Arginine A Same State; Euphoria Solution 2] | 19 nM | 23.6 nM | 16.6 nM | 19.1 nM | 18.7 nM
12 | AGACAUGAGGAUCACCCAUGUGAAGUGGAUACCAGCCGCAGCGAUGGCCCUUGGCAGCCAGCUUUGUGUCGAUACAUCCGCACUU [theeternabot_exclusion_MS2_Theo_A_2] | 16.9 nM | 22.9 nM |  |  | 18.1 nM
13 | AGACGAGAAGAGGUUUACCCAUGUACAGAAGGAGCGUCGUUGACGACAGGUAGGUCGCUGGAAACAUGAGGAUCACCCAUGUUGA [#06 Exclusion - Arginine A] | 27.4 nM | 49.1 nM | 59.7 nM | 40.8 nM | 48.3 nM
14 | AGACUGUAAAGUCUACCGGUCAACAAUAAUCGAGGACCGGUACGGCCGCCACUCGAUGUGAUAUACACAUGAGGAUCACCCAUGU [Tryptophan A 16] | 17.2 nM | 22.6 nM | 19.7 nM |  | 
15 | AGAGUCAGACAAAAGUCUGGCUCAGCCGAAGGAGCGUCCGAAAGGACAGGUAGGUCGCGGUUACUUGAGGAUCACCCAAGUUCCU [ArgAS 26 #OpenEnded #AlternativeMS2] | 69 nM | 151 nM | 177 nM | 163 nM | 144 nM
16 | AGAUAACAUGGUUUAAUAAGUUAAACUGAUACCAGUGUAUAUAAUCACCCUUGGCAGCAGCAACAUGAGGAUCACCCAUGUAAUA [JR_SSTheophyA_Sub013] | 16.2 nM | 19.9 nM |  |  | 19.6 nM
17 | AGCACUGUGACGGCCGCCACUACAUAUAGGGUGGUCAGGCCCAUAAUACAUGAGGAUCACCCAUGUAGGACCGGGUCUCAGUGCA [Omei Trp Exc B A v12] | 11.7 nM | 25.4 nM | 18.3 nM |  | 
18 | AGCCACUCGAGUGAUCCUCACGAGUGGCUACGAGGACCGGUACGGCCGCCACUCGAAUUAACAUGAGGAUCACCCAUGUAAUCAU [Brourdmod04] | 97.8 nM | 259 nM | 317 nM |  | 

Row | Sequence | apparent KD of MS2 coat protein (input ligand: arginine 13.2 mM) | apparent KD of MS2 coat protein [1] | apparent KD of MS2 coat protein [2] | apparent KD of MS2 coat protein (input ligand: none) | apparent KD of MS2 coat protein [3]
19 | AGGACAUGAGGAUCACCCAUGUACACUGAAGGAGCGUCGAGAACGACAGGUAGGUCGCAGGCUAAGGAAGGUGAUGCUCAAGAAG [Exclusion Arginine A GF6] | 28.2 nM | 40.9 nM | 29.8 nM | 26.2 nM | 27.1 nM
20 | AGGCAGUAGGUGAUCCACUGCCAAGGUGAUACCAGCAUCGAAAGAUGCCCUUGGCAGCACCAACAUGAGGAUCACCCAUGUAAUA [(MT)''-(M)'-(T')-(Theo)-(Ms2)_Design1/22_9] | 36.9 nM | 186 nM |  |  | 99.2 nM
21 | AGGUAUGAUCCGGAUACCAGCGAACAUGAGGAUCACCCAUGUGACCUGAGAUAGGCUCUACGCCCUUGGCAGCCGCGAUCGCAGA [Same State Theophylline B GF11] | 10.1 nM | 14.2 nM | 9.63 nM | 11.4 nM | 12.5 nM
22 | AGGUGACAUGAGGAUCACCCAUGUGGCUUACGAGGACCGGUACGGCCGCCACUCGGUGUGACCUCCGCAUUCACAUAAUAAUCUU [Rilala] | 37.4 nM | 131 nM | 126 nM |  | 
23 | AGUCCUCUGUACCCUGAUGCCCUCACUUUACGAGGACCGGUACGGCCGCCACUCGAAUCCCAACAUGAGGAUCACCCAUGUCGAC [theeternabot_exclusion_MS2_Trp_A_26] | 30 nM | 40 nM | 47 nM |  | 
24 | AGUCUCAGUGGAAGGAGCGUCGCGACUGCUACAUGAGGAUCACCCAUGUCGCCUUGAGCGCGACAGGUAGGUCGCCACGGUAGGC [Erraraorle] | 14.1 nM | 29.6 nM | 20.8 nM | 17.5 nM | 18.2 nM
25 | AGUGUUAUAACUGAUACCAGACUUUUGCUUAUACAUGAGGAUCACCCAUGUAAAAUGGUUGUCCCUUGGCAGCAGAAAAUACACA [JR_SSTheophyB_Sub007] | 81.6 nM | 104 nM |  |  | 134 nM
26 | AGUGUUAUAACUGAUACCAGACUUUUGCUUAUACAUGAGGAUCACCCAUGUAAAAUGGUUGUCCCUUGGCAGCAGAAGUUACACA [JR_SSTheophyB_Sub008] | 104 nM | 96.1 nM |  |  | 58.6 nM
27 | AGUUACUCGAACAUGGUUGACGAGUGGCAACGAGGACCGGUACGGCCGCCACUCGAAUAAACAUGAGGAUCACCCAUGUACAAAU [T''-M'-T'-T-MS2 - Design 10.b] | 61.9 nM | 148 nM | 160 nM |  | 
28 | AUAACAUGAGGAUCACCCAUGUAAGCAGAUACCAGCUAGGAAACUAGCCCUUGGCAGCUGCAAGGUGAUCCUAGGUAUCUGCAAU [(M1)-(M2)-(T1)-(T2)-(M)'-(T)'_Design6] | 30.4 nM | 49.3 nM | 52.2 nM | 24.7 nM | 25.9 nM
29 | AUAACAUGAGGAUCACCCAUGUAAGCAGAUACCAGCUAGGAAACUAGCCCUUGGCAGCUGCAAUCCUCAUGUAUUGCAGCUGCAA [(M1)-(M2)-(T1)-(T2)-(M)'-(T)'_Design1] | 21.5 nM | 26.2 nM |  |  | 15.3 nM
30 | AUAACCCUUGACUAAAACACUAAAUCAGUUCGAGGACCGGUACGGCCGCCACUCGUGUCAAGACAUGAGGAUCACCCAUGUACCU [Isbe] | 32 nM | 45.4 nM | 44.3 nM |  | 
31 | AUAAUAAUCAUGGGUGAAGGUCCUCGCAAACGAGGACCGGUACGGCCGCCACUCGAACAUGAGGAUCACCCAUGUGUGAGGACCU [M' - T' - T - MS2 - T'' Design 2] | 24.9 nM | 59.7 nM | 74.1 nM |  | 
32 | AUAAUAUAGACGGCCGCCACUAUAAACAUGAGGAACAUGAGGAUCACCCAUGUAUGAGGAUCACCUAGGACCGGGUCAUAUAUUA [AstrosExyTryB#2] | 39.3 nM | 79.8 nM | 62.4 nM |  | 
33 | AUACAUGAGGAUCACCCAUGUAUAGUUGAAGGAGCGACCAGAGGGUCAGGUAGGUCGCAGCGCAUGAGGUAAGCCCAUGUAUGCU [#1 Exclusion - Arginine A Attempt #16 (Inspired by Pi)] | 22.7 nM | 44 nM | 70 nM | 22.8 nM | 17.2 nM
34 | AUACAUGAGGAUCACCCAUGUCUUACGGAAGGAGCGAUCAAGAGAUCAGGUAGGUCGCCGUACAUGAGGAUCACCCAUGUAGGCG [EAA NP+V+V2 #9 DOUBLE] | 19.5 nM | 33.4 nM | 35.7 nM | 32.3 nM | 31.3 nM
35 | AUACAUGAGGAUCACCCAUGUUAUAGUGAAGGAGCGACAUUUAGGUCAGGUAGGUCGCACUAUUGAAUUAUUAUUCUCAGUUCUU [JR_ExcArginiA_Sub019] | 14.2 nM | 21.8 nM | 13.7 nM | 13.2 nM | 15.2 nM
36 | AUACAUGAGGAUCACCCAUGUUAUAGUGAAGGAGCGACAUUUAUGUCAGGUAGGUCGCACUGUUGUUUAAUGAUUCUUGGAUCUU [#20 Exclusion - Arginine A] | 16 nM | 18.9 nM | 14.1 nM | 13.3 nM | 15.1 nM
